T1: human LAG-3 protein (human, UniProt P18627 23-450, limits assumed)
T1 construct: also called human LAG-3 antigen; LAG-3 antigen
T1 sequence (looked up): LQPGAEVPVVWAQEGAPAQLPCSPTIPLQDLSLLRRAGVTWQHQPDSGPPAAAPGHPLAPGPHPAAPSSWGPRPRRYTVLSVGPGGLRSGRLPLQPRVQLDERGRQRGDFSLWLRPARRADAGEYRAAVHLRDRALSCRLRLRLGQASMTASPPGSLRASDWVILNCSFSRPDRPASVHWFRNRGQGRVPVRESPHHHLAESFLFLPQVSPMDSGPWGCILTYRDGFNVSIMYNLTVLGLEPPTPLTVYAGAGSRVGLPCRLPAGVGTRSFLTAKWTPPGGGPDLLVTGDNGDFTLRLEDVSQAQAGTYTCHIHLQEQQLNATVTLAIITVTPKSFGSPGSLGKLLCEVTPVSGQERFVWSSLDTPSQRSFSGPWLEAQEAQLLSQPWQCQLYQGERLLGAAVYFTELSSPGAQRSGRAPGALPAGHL

T2: human LAG-3 full-length protein overexpressed on CHO-S cells (human, UniProt P18627 23-525)
T2 construct: whole, on cells; also called full-length LAG-3; CHO-S cells overexpressing the human LAG-3 full-length protein
T2 sequence (looked up): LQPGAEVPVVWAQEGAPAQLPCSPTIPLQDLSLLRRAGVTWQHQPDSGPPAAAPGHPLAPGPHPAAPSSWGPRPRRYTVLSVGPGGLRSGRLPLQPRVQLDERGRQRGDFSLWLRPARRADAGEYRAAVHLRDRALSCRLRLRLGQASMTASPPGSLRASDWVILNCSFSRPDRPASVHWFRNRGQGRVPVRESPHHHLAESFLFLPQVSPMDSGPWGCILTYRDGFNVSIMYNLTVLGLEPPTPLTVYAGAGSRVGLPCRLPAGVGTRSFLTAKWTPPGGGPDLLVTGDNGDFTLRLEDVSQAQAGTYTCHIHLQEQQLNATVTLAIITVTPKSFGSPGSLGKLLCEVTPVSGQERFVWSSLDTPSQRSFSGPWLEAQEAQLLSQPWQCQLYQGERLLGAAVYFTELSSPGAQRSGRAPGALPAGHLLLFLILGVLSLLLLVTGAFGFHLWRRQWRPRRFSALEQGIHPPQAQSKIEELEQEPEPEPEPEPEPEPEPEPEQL


Experiments:
human LAG-3 protein = biological target: T1, human LAG-3 protein; experiment: binding ELISA on human LAG-3 protein (Test Example 1)
[1] = biological target: T2, human LAG-3 full-length protein …; experiment: cell ELISA on CHO-S cells overexpressing human LAG-3 (Test Example 2)

Binder | binding result (human LAG-3 protein) | binding result [1]
mAb229 (antibody, V domains shown, also called LAG-3 antibody mAb229; hybridoma clone mAb229) VH: QIQLVQSGPELKKPGETVKISCKASGYTFTTSGMSWVKQAPGKGLKWMGWINTYSGVPTYADDFKGRFAFSLETSASTAYLQINNLKNEDTATYFCARDNYDARDVYYYAMDYWGQGTSVTVSS VL: DIQMTQSPASLSVSVGETVTITCRASENIYSNLAWYQQKQGKSPQLLVYAATNLADGVPSRFSGSGSGTQYSLKINSLQSEDFGSYYCQHFWITPWTFGGGTKLEIK | binds | binds
mAb303 (antibody, V domains shown, also called LAG-3 antibody mAb303; hybridoma clone mAb303) VH: EVQLQQSGPVLVKPGASVKMSCKASGYTLTDYYMNWVKQSHGKSLEWIGVINPYNGDTAYNQKFKGKATLTVDKSSNTAYMEINSLTSEDSAVYYCTRDDGYYDYYFDVWGTGTTVTVSS VL: DIQMTQSPSSLSASLGERVILTCRASQDIGSRLNWLQQGPDGTFKRLIYATSTLDSGVPKRFSGSRSGSDFSLTISSLESEDFVDYYCLQLASSPPTFGGGTKLEIK | binds | binds

Source: patent WO2019076277A1 (dated 2019)
